In PMC11662666 (Nucleic Acids Research, 2024):
Several values for one entry are separate records, joined by “and”; a condition that tells them apart may be missing. Equal values may be shown once.

Tests used:
[1] = biological target: T1, deoxyadenosine kinase (dAK) (Giardia duodenalis, UniProt A8B9V6); test: enzyme inhibition kinetics with purified dAK; co-purified dATP seen by HPLC; type: biochemical; parameters: gene GL50803_0017451; full-length dAK
T1 sequence (A8B9V6 1-251): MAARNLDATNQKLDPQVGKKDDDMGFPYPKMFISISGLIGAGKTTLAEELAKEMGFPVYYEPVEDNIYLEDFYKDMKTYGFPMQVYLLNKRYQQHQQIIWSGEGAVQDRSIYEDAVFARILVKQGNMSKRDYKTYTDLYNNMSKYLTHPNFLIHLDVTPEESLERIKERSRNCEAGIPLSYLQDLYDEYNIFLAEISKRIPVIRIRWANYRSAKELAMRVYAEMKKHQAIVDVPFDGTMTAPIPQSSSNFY

[2] = biological target: T1, deoxyadenosine kinase (dAK); test: X-ray crystal structure at […] Å (co-purified ligand); HPLC of bound nucleotides; enzyme inhibition; type: binding; parameters: gene GL50803_0017451; full-length dAK (untagged after TEV cleavage)
[3] = biological target: Giardia intestinalis deoxyadenosine kinase (Giardia intestinalis (assemblage A isolate WB)); test: crystal structure + cryo-EM structure
[4] = biological target: Giardia intestinalis deoxyadenosine kinase (Giardia intestinalis (assemblage A isolate WB)); test: mass photometry; Refeyn 2MP, protein in PBS; 50 nM by the methods, 65 nM by the results
[5] = biological target: Giardia intestinalis deoxyadenosine kinase (Giardia intestinalis (assemblage A isolate WB)); test: SEC; Superdex 200 10/300 GL, 150 mM KCl, 50 mM Tris-HCl pH 7.6, 0.4 ml/min; protein at 0.1 mg/ml (4 μM); mass from a standard curve
[6] = biological target: Giardia intestinalis deoxyadenosine kinase lacking the N- and C-termini (dAK-ΔNΔC, amino acids 30-232) (Giardia intestinalis (assemblage A isolate WB)); test: mass photometry; Refeyn 2MP, protein in PBS; 50 nM by the methods, 65 nM by the results
[7] = biological target: Giardia intestinalis deoxyadenosine kinase lacking the N-terminus (dAK-ΔN, amino acids 30-251) (Giardia intestinalis (assemblage A isolate WB)); test: as above
[8] = biological target: Giardia intestinalis deoxyadenosine kinase lacking the C-terminus (dAK-ΔC, amino acids 1-232) (Giardia intestinalis (assemblage A isolate WB)); test: as above
purified protein [9] = substrate: Nc1nc(Cl)nc2c1ncn2[C@H]1C[C@H](O)[C@@H](CO)O1; test: purified protein; conditions: ATP and Mg2+ (phosphate donor in assay) active site (2-Cl towards F72, modelled)
purified protein [10] = substrate: Nc1ncnc2c1ncn2[C@H]1C[C@H](O)[C@@H](CO)O1; test: purified protein; conditions: ATP and Mg2+ (phosphate donor in assay) active site
[11] = substrate: Nc1nc(Cl)nc2c1ncn2[C@@H]1O[C@H](CO)[C@@H](O)[C@@H]1F; test: steady-state kinetics with purified enzyme, HPLC (KM); type: biochemical, Giardia duodenalis; conditions: ATP and Mg2+ (phosphate donor in assay)
[12] = substrate: Nc1nc(F)nc2c1ncn2[C@@H]1O[C@H](CO)[C@@H](O)[C@@H]1O; test: as above; type: biochemical, Giardia duodenalis; conditions: ATP and Mg2+ (phosphate donor in assay)
[13] = substrate: Nc1nc(I)nc2c1ncn2[C@H]1C[C@H](O)[C@@H](CO)O1; test: as above; type: biochemical, Giardia duodenalis; conditions: ATP and Mg2+ (phosphate donor in assay)
[14] = substrate: Nc1ncnc2c1ncn2[C@@H]1O[C@H](CO)[C@@H](O)[C@@H]1F; test: as above; type: biochemical, Giardia duodenalis; conditions: ATP and Mg2+ (phosphate donor in assay)
[15] = substrate: Nc1ncnc2c1ncn2[C@@H]1O[C@H](CO)[C@@H](O)[C@@H]1O; test: as above; type: biochemical, Giardia duodenalis; conditions: ATP and Mg2+ (phosphate donor in assay)

## Nc1ncnc2c1ncn2[C@H]1C[C@H](O)[C@@H](COP(=O)(O)OP(=O)(O)OP(=O)(O)O)O1 [dATP, deoxyadenosine triphosphate]
[1]
  Ki: 840 ± 220 nM

## Nc1ncnc2c1ncn2[C@H]1C[C@H](O)[C@@H](COP(=O)(O)O)O1 [dAMP, deoxyadenosine monophosphate]
[2]
  X-ray crystal structure at 2.1 Å (co-purified ligand); HPLC of bound nucleotides: the density for active site II unambiguously allowed for the placement of a dAMP

## Giardia intestinalis deoxyadenosine kinase (enzyme)
[3]
  stoichiometry N: 4
[4]
  stoichiometry N: 4
[5]
  stoichiometry N: 4

## Giardia intestinalis deoxyadenosine kinase lacking the N- and C-termini (dAK-ΔNΔC, amino acids 30-232) (domain or fragment)
[6]
  stoichiometry N: 2

## Giardia intestinalis deoxyadenosine kinase lacking the N-terminus (dAK-ΔN, amino acids 30-251) (domain or fragment)
[7]
  stoichiometry N: 4 and 2

## Giardia intestinalis deoxyadenosine kinase lacking the C-terminus (dAK-ΔC, amino acids 1-232) (domain or fragment)
[8]
  stoichiometry N: 2 and 4

B1: deoxyadenosine kinase (dAK) (Giardia lamblia ATCC 50803) (protein)
chain: T1 sequence (A8B9V6 1-251)
notes: full-length dAK
Purified protein [9]
  Km: 0.51 ± 0.08 µM
  Vmax: 5.78 µmol/min/mg
  kcat: 2.79 s⁻¹
  kcat/Km: 5.48e+06 M⁻¹ s⁻¹
Purified protein [10]
  Km: 1.12 ± 0.37 µM
  Vmax: 10.3 µmol/min/mg
  kcat: 4.96 s⁻¹
  kcat/Km: 4.43e+06 M⁻¹ s⁻¹
[11]
  Km: 6.23 ± 1.33 µM
  Vmax: 7.26 µmol/min/mg
  kcat: 3.51 s⁻¹
  kcat/Km: 563000 M⁻¹ s⁻¹
[12]
  Km: 8.40 ± 0.60 µM
  Vmax: 7.2 µmol/min/mg
  kcat: 3.48 s⁻¹
  kcat/Km: 414000 M⁻¹ s⁻¹
[13]
  Km: 4.78 ± 0.17 µM
  Vmax: 13.7 µmol/min/mg
  kcat: 6.63 s⁻¹
  kcat/Km: 1.39e+06 M⁻¹ s⁻¹
[14]
  Km: 2.66 ± 0.11 µM
  Vmax: 7.64 µmol/min/mg
  kcat: 3.69 s⁻¹
  kcat/Km: 1.39e+06 M⁻¹ s⁻¹
[15]
  Km: 6.70 ± 0.07 µM
  Vmax: 6.6 µmol/min/mg
  kcat: 3.19 s⁻¹
  kcat/Km: 476000 M⁻¹ s⁻¹
